Experiments:
ErbB2 [1] = biological target: T1, ErbB2 (UniProt P04626 23-652, limits assumed); assay: cell-based or functional assay
ErbB2 [2] = biological target: T1, ErbB2; assay: BIAcore 2000 SPR, ErbB2 amine-coupled to the chip, antibody injected
ErbB2 [3] = biological target: T1, ErbB2; assay: BIAcore 2000 SPR, ratio of KD values

| Binder | inhibition of NCI-N87 cell proliferation (WST-8, 6 days), IC50 (ErbB2 [1]) [nM] | Kd (ErbB2 [2]) [nM] | koff (ErbB2 [2]) [s⁻¹] | kon (ErbB2 [2]) [M⁻¹ s⁻¹] | fold increase of affinity against the parent antibody 4D5 (ErbB2 [3]) [fold] |
| --- | --- | --- | --- | --- | --- |
| humanized antibody A091 (antibody, V domains shown, Expressed as a whole humanized antibody in CHO-s cells) VH: EVQLVESGGGLVQPGGSLRLSCAASGFNIKDTYIHWVRQARGKGLEWVARIYPTNGYTRYADSVKGRFTISADTSKNTAYLQMNSLRAEDTAVYYCSRWGGWGFYAFALWGQGTLVTVSS VL: DIQMTQSPSSLSASVGDRVTITCRASQDVNTAVAWYQQKPGKAPKLLIYTTTWPYSGVPSRFSGSRSGTDFSLTISSLQPEDFATYYCQQYYNTPVTFGQGTKVEIK | 10.3 | 1.07 | 0.000688 | 644000 |  |
| humanized antibody AH16 (antibody, V domains shown, Expressed as a whole humanized antibody in CHO-s cells) VH: EVQLVESGGGLVQPGGSLRLSCAASGFNIKDTYIHWVRQAPGKGLEWVARIYPTNGYTRYADSVKGRFTISADTSKNTAYLQMNSLRAEDTAVYYCSRWNAKGFYSFVHWGQGTLVTVSS VL: not shown |  | 0.297 | 0.00012 | 404000 | ~2 |
| humanized antibody A058 (antibody, V domains shown, Expressed as a whole humanized antibody in CHO-s cells) VH: EVQLVESGGGLVQPGGSLRLSCAASGFNIKDTYIHWVRQAPGKGLEWVARIYPTNGYTRYADSVKGRFTISADTSKNTAYLQMNSLRAEDTAVYYCSRWGGWGFYAFALWGQGTLVTVSS VL: DIQMTQSPSSLSASVGDRVTITCRASQDVNTAVAWYQQKPGKAPKLLIYSASFLYSGVPSRFSGSRSGTDFTLTISSLQPEDFATYYCQQHYQTPASFGQGTKVEIK | 4.3 | 0.533 | 0.000278 | 522000 |  |

— patent US20150104443A1 (CHONG KUN DANG PHARMACEUTICAL, published 2015)
